Test results reported in the DeepSol protein solubility set.

test: soluble on expression in E. coli; label from the status in PepcDB or PDB records

Sequence | soluble on expression in E. coli
MFKILRKERLAPGINLFEIESPRIAKHAKPGQFVMIRLHEKGERIPLTIADVDISKGSITIVAQEVGKTTRELGTYEAGDYILDVLGPLGKPSHIDYFGTVVMIGGGVGVAEIYPVAKAMKEKGNYVISILGFRTKDLVFWEDKLRSVSDEVIVTTNDGSYGMKGFTTHALQKLIEEGRKIDLVHAVGPAIMMKAVAELTKPYGIKTVASLNPIMVDGTGMCGACRVTVGGEVKFACVDGPEFDAHLVDWDQLMNRLAYYRDLEKISLEKWERERRMV | not soluble
MFKIVYPNAKDFFSFINSITNVTDSIILNFTEDGIFSRHLTEDKVLMAIMRIPKDVLSEYSIDSPTSVKLDVSSVKKILSKASSKKATIELTETDSGLKIIIRDEKSGAKSTIYIKAEKGQVEQLTEPKVNLAVNFTTDESVLNVIAADVTLVGEEMRISTEEDKIKIEAGEEGKRYVAFLMKDKPLKELSIDTSASSSYSAEMFKDAVKGLRGFSAPTMVSFGENLPMKIDVEAVSGGHMIFWIAPRLLEHHHHHH | soluble
MFKKLSVLALAMIISLSITACNSKENKANDESNTKVTTADDSKEKETLFVYSGAGLKKPMDEIAKKFEKENNVKVEYSYAGSAQLIAQIETSHKGDVFIVGSEPIYSKAFEKELVGEHKTVAHHTPAIVVPKGNPANIQKLEDLNKDGVKLILGDKESNAIGKTTQKILEKNNLKSINDNVVSTAATVNEMIVQLTSSKADATIATKDSVFGNEDVEVIEIAQDKNIDQLISAGIVNYSDKKDLANKFINYIESDEAKQIFKKYGFEPVK | not soluble
MFKLVGKEAFKVGDMKCIINVEALGTFAYEYSLDVNGKTFNKFKEEQNKRLHSWETTLSGHQWRVVLDKESMEIWANGNNIDTAGEFVDNGTVTHFELGKNPCKIIAQSSGKKKTGVTHTLYVNGEIVPSTVDKPNPSNQPGSS | not soluble
MFKRFRRLRLNENLRSMVRENSLSVNDLIYPLFVVNGTGIKKEISSMPDVFQMSLDEILKECQNVVNLGIKAIILFGVLENEKKDSCGSDALDDEGLVARSIREIKKNFPDLFIISDLCFCEYTDHGHCGIIDPKIKSVDNDATLEISAKQALVHARAGVDMIAPSGMMDGVITTLRKALDKEGFENLPIMAYSTKFASSYYGPFRDVAESAPSYGDRKSYQMDFANGKEALEESLEDEAQGADILMVKPALAYLDVVKEISLHSNLPLCIYNVSGEYAMLKAAKNAGVIDYEKVLYETIIAFKRAGAKLIITYHAKELAKMLKGEK | soluble
MFKRIGLISIALSLNTISFTSEACSALVFNKNKPATVAVNLDWKYREGAFVIHPRNAMMVSSVDYHSMHPLIWKSQYGSVIFHGGNRFKAGPSADGMNEKGLTASILMLDSSIYPSNSELPALKTTEWVQYILDNFQTVQEVIDDSSNYQLVADTYRGITMNVHLMVSDAEGKSAVFEYLDGKLVIHTQDNLTTPVLTNTDYKLSLALLEEYQDHGGSKALPGGYDSKSRFVRAAHYLKKLPSFIAKEEHIAYAFNGLNVVTQAPGTSSPTQLSMVFDIPTKTIYFRSINEAALRVIPMDSIDFDYLYQPIALNVYQHLSGDVTDKFQPMIG | not soluble
MFKSVAKLGKSPIFYLNSQRLIHIKTLTTPNENALKFLSTDGEMLQTRGSKSIVIKNTDENLINHSKLAQQIFLQCPGVESLMIGDDFLTINKDRMVHWNSIKPEIIDLLTKQLAYGEDVISKEFHAVQEEEGEGGYKINMPKFELTEEDEEVSELIEELIDTRIRPAILEDGGDIDYRGWDPKTGTVYLRLQGACTSCSSSEVTLKYGIESMLKHYVDEVKEVIQIMDPEQEIALKEFDKLEKKLESSKNTSHEK | soluble
MFLQHNNQLICNLEKMGLTENEAKAYVGLVSLGEATAREVHELTNVPRAKIYEVLKVLAKRGYLEVRQGSPTYFRAVDPKQVIGKIKDEFINCAIETLDQLNELSYELPRTSPVWCIQSEWGIKNRIREILNGVKEELIVFSSSPRFFQEFEAELKKLEKTCQLTFIISEPEKFESFPFEFRETTKEFREFLNNIVIDGIRYDEEFFMIADGKESIGVHSAGDKREAVVIKLPVVCYLQKMIYDRVLEPSFVKKNRKSA | not soluble
MFLTWENLFLTNQSRRRLKLLVVERSYNNVGNFLKEYFGGFFEIVNFDDLRLTMVDMVSLSSEYDVIVTDMILEQTTDSEILFFNQMAPSVVANRLTDM | not soluble
